We go through three molecules from patent US20260139017A1, “COMPOSITIONS AND METHODS USING REELIN IN ALZHEIMER'S DISEASE” (The General Hospital Corporation, priority 2022, published 2026).

The target in one test is T1, NRP1 (Homo sapiens, UniProt O14786).
T1 construct: purchased R&D 3870-N1-025
T1 sequence (O14786 22-644 isoform O14786-2 limits assumed): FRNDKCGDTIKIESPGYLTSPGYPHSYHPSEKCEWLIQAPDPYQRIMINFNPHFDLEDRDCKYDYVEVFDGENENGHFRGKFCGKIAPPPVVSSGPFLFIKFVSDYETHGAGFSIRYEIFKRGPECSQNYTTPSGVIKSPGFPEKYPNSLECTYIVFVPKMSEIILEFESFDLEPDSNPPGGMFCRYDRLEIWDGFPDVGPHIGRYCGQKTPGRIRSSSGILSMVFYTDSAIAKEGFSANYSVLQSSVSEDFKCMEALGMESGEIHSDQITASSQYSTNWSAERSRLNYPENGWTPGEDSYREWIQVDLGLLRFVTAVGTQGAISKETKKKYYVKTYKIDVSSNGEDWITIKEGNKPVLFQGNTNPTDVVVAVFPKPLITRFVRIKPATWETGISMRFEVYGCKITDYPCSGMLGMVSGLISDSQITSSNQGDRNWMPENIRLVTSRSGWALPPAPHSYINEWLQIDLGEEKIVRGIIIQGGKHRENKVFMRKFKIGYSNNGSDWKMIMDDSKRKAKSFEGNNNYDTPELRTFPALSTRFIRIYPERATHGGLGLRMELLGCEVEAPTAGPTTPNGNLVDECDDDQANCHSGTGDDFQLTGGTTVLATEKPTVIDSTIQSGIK
In words: Bio-layer interferometry (BLI) of CTR-RELN-NRP-1 interactions. As to conditions: immobilized biotinylated NRP1. It counts as binding. The procedure: Bio-layer interferometry (BLI) was additionally used to assess NRP1-protein kinetics at 30° C. and 1000 rpm agitation. 1 mg/mL NRP1 (R&D 3870-N1-025) was biotinylated at a 1:2 molar ratio, desalted, and immobilized on the SA biosensor tip (Pall ForteBio) surface. This was followed by 1) 180 seconds baseline buffer diluent, 2) loading of the ligand (NRP1), 3) 180 seconds baseline buffer diluent, 4) 240 seconds association (analyte), and 5) 300 seconds disassociation in assay buffer. Assay buffer: SD Buffer (pH7.4 PBS, 0.05% tween20, 0.01% BSA).
The experimental data were fit with the 1:1 binding model and analyzed with global fitting using Octet Data Analysis software to calculate KD.
Bio-layer interferometry (BLI) was used to assess NRP1-protein kinetics at 30° C. and 1000 rpm agitation using previously published methods. 1 mg/mL NRP1 (R&D 3870-N1-025) was biotinylated at a 1:2 molar ratio, desalted, and immobilized on the SA biosensor tip (Pall ForteBio) surface. This was followed by 1) 180 seconds baseline buffer diluent, 2) loading of the ligand (NRP1), 3) 180 seconds baseline buffer diluent, 4) 240 seconds association (analyte), and 5) 300 seconds disassociation in assay buffer. Assay buffer: SD Buffer (pH7.4 PBS, 0.05% tween20, 0.01% BSA).

The test system of test [1] is pDAB1 (Tyr232). As to the kind of experiment: HRECs treated 5 minutes with HEK 293T-derived mini-RELN media, pDAB1 western blot. As to conditions: HEK 293T-derived media 1:1, 1:4, 1:14, 5 minutes. The class given is cell-based, human. The protocol: The effect of in vitro treatment with RELN or miniRELN protein was also evaluated. HRECs were cultured in EBM-2 media enriched with EGM-2 Single Quots (Lonza) at 37° C. and 5% CO2 and experimentally tested at passage 7. 24 h prior experiment, cells were plated on a 6-well plate at 500,000 cells/mL. Two hours before the experiment, the cells were washed with PBS to remove residual growth media and then incubated with a starving media including EBM-2, 1% GlutaMax+0,2% Normicin. Treatments was conducted using media derived from HEK 293T cells transiently transfected for 24 h with different mini-RELN constructs in the presence of Lipofectamine 2000. HEK-derived Lipofectamine2000-media was used as negative control. HEK 293T-derived media was tested at different ratio 1:1, 1:4, and 1:14 (Transfected media:Starving media). Each treatment was incubated for 5 minutes and cells were subsequently harvested in lysis buffer was applied constituted of RIPA (Cell signaling), proteases inhibitors (cOmplete™, Mini, EDTA-free Protease Inhibitor Cocktail, Roche), phosphatases inhibitors (PhosSTOP, Roche), 1 μL of proteasome inhibitor MG-132 10 mM, 1% Triton X 100. The lysates were scraped and centrifugated at 15000 rpm for 10 minutes at 4° C. Total protein levels were quantified via BCA assay. […] We detected pDAB1 (Tyr232; 1:1000, rabbit, #3325 Cell signaling), and Beta actin (1:5000, mouse, #66009-1-Ig, Proteintech. Antibodies were diluted using Intercept® (TBS) Blocking Buffer and incubated overnight at 4C under gentle shaking. Prior secondary antibody incubation, membranes were washes 2 times using TBS-T for 10 minutes. As secondary antibodies we used IR Dye 800n CW Goat-anti-Rabbit (925-32211, Licor) and IR Dye 680 CW Goat-anti-Mouse (925-68070, Licor) both diluted 1:10000 in blocking buffer for 1 h at room temperature under gentle shaking. Membranes were washed three times with TBS-T prior IR detection using Odyssey imager. To quantify the results, each band was quantified using ImageJ and data expressed as pDAB1:βActin ratio normalized to the control. […]
In general terms: A western blot detects proteins with antibodies after separation by electrophoresis.

For test [2], the system named is pDAB1 (Tyr232). As to the kind of experiment: HRECs treated 5 minutes with recombinant mini-RELN, pDAB1 western blot. It counts as cell-based, human. As to conditions: 5 minutes, 4 ug/mL recombinant protein. The procedure:
For in vitro screening of constructs using recombinant mini-RELN on HRECs, the cells were cultured in EBM-2 media enriched with EGM-2 Single Quots (Lonza) at 37° C. and 5% CO2 and experimentally tested at passage 7. 24 h prior experiment, cells were plated on a 6-well plate at 500,000 cells/mL. Two hours before the experiment, the cells were washed with PBS to remove residual growth media and then incubated with a starving media including EBM-2, 1% GlutaMax+0.2% Normicin. Treatments was conducted using recombinant mini RELN constructs obtained from Innovagen and Recombinant Mouse Reelin Protein from R&D systems (3820-MR-025/CF). Each treatment was incubated for 5 minutes at 4 ug/mL concentration and cells were subsequently harvested in lysis buffer was applied constituted of RIPA (Cell signaling), proteases inhibitors (cOmplete™, Mini, EDTA-free Protease Inhibitor Cocktail, Roche), phosphatases inhibitors (PhosSTOP, Roche), 1 μL of proteasome inhibitor MG-132 10 mM, 1% Triton X 100. The lysates were scraped and centrifugated at 15000 rpm for 10 minutes at 4° C. Total protein levels were quantified via BCA assay. For Western Blotting, 3.5 ug protein homogenates were prepared under reducing and denaturing conditions using Laemmli buffer enriched with 10 mM DTT and 5 min boiling. Samples were electrophoretically separated in a 4-20% Gel at 90V and protein transferred to a PVDF membrane using iBlot™ 2 Dry Blotting System. The membrane was blocked using Intercept® (TBS) Blocking Buffer for 2 hours. We detected pDAB1 (Tyr232; 1:1000, rabbit, #3325 Cell signaling), and total protein staining (Licor). Antibodies were diluted using Intercept® (TBS) Blocking Buffer and incubated overnight at 4C under gentle shaking. Prior secondary antibody incubation, membranes were washed 2 times using TBS-T for 10 minutes. As secondary antibodies we used IR Dye 800n CW Goat-anti-Rabbit (925-32211, Licor) diluted 1:10000 in blocking buffer for 1 h at room temperature under gentle shaking. Membranes were washed three times with TBST-T prior IR detection using Odyssey imager. To quantify the results, each band was quantified using ImageJ and data expressed as pDABL:total protein ratio normalized to the control.

B1: pfcn-huIgG2-C-termH3447R (protein)
chain: MYRMQLLSCIALSLALVTNSAPLERKSSVECPPCPAPPVAGPSVFLFPPKPKDTLMISRTPEVTCVVVDVSHEDPEVQFNWYVDGVEVHNAKTKPREEQFNSTFRVVSVLTVVHQDWLNGKEYKCKVSNKGLPAPIEKTISKTKGQPREPQVYTLPPSREEMTKNQVSLTCLVKGFYPSDIAVEWESNGQPENNYKTTPPMLDSDGSFFLYSKLTVDKSRWQQGNVFSCSVMHEALHNHYTQKSLSLSPGARTSTRKQNYMMNFSRQHGLRRFYNRRRRSLRRYP
In the test with NRP1, B1 returned a ka of 12900 M⁻¹ s⁻¹ and a kd of 0.00102 s⁻¹.

B2: IL2ss-6xHis-FspCR50-R6-R6 Cterm RELN-H3447R (protein)
chain: MYRMQLLSCIALSLALVTNSGGHHHHHHGGGAAGYYPRFSPFFFLCTHHGELEGDGEQGEVLISLHIAGNPTYYVPGQEYHVTISTSTFFDGLLVTGLYTSTSVQASQSIGGSSAFGFGIMSDHQFGNQFMCSVVASHVSHLPTTNLSFIWIAPPAGTGCVNFMATATHRGQVIFKDALAQQLCEQGAPTDVTVHPHLAEIHSDSIILRDDFDSYHQLQLNPNIWVECNNCETGEQCGAIMHGNAVTFCEPYGPRELITTGLNTTTASVLQFSIGSGSCRFSYSDPSIIVLYAKNNSADWIQLEKIRAPSNVSTIIHILYLPEDAKGENVQFQWKQENLRVGEVYEACWALDNILIINGGSRTLDSRKWLLHPGGTKMPVCGSTGDALVFIEKASTRYVVSTDVAVNEDSFLQIDFAVSCSVTDSCYAIELEYSVDLGLSWHPLVRDCLPTNVECSRYHLQRILVSDTFNKWTRITLPLPPYTRSQATRFRWHQPAPFDKQQTWAIDNVYIGDGCIDMCSGHGRCIQGNCVCDEQWGGLYCDDPETSLPTQLKDNFNRAPSSQNWLTVNGGKLSTVCGAVASGMALHFSGGCSRLLVTVDLNLTNAEFIQFYFMYGCLITPNNRNQGVLLEYSVNGGITWNLLMEIFYDQYSSGGGTLDSRKWLLHPGGTKMPVCGSTGDALVFIEKASTRYVVSTDVAVNEDSFLQIDFAVSCSVTDSCYAIELEYSVDLGLSWHPLVRDCLPTNVECSRYHLQRILVSDTFNKWTRITLPLPPYTRSQATRFRWHQPAPFDKQQTWAIDNVYIGDGCIDMCSGHGRCIQGNCVCDEQWGGLYCDDPETSLPTQLKDNFNRAPSSQNWLTVNGGKLSTVCGAVASGMALHFSGGCSRLLVTVDLNLTNAEFIQFYFMYGCLITPNNRNQGVLLEYSVNGGITWNLLMEIFYDQYSTGGSGGSTRKQNYMMNFSRQHGLRRFYNRRRRSLRRYP
In the case of B2, in the test with pDAB1 (Tyr232) [1], the “pDAB1 / Dab1 signaling activation” value is on record as “efficacy”.

B3: hG2Fc-R5-6-C-termH3447R (protein)
chain: MYRMQLLSCIALSLALVTNSAPLERKSSVECPPCPAPPVAGPSVFLFPPKPKDTLMISRTPEVTCVVVDVSHEDPEVQFNWYVDGVEVHNAKTKPREEQFNSTFRVVSVLTVVHQDWLNGKEYKCKVSNKGLPAPIEKTISKTKGQPREPQVYTLPPSREEMTKNQVSLTCLVKGFYPSDIAVEWESNGQPENNYKTTPPMLDSDGSFFLYSKLTVDKSRWQQGNVFSCSVMHEALHNHYTQKSLSLSPGARTGGGGSGGGGSQTNATRFRLWQPYNNGKKEEIWIVDDFIIDGNNVNNPVMLLDTFDFGPREDNWFFYPGGNIGLYCPYSSKGAPEEDSAMVFVSNEVGEHSITTRDLNVNENTIIQFEINVGCSTDSSSADPVRLEFSRDFGATWHLLLPLCYHSSSHVSSLCSTEHHPSSTYYAGTMQGWRREVVHFGKLHLCGSVRFRWYQGFYPAGSQPVTWAIDNVYIGPQCEEMCNGQGSCINGTKCICDPGYSGPTCKISTKNPDFLKDDFEGQLESDRFLLMSGGKPSRKCGILSSGNNLFFNEDGLRMLMTRDLDLSHARFVQFFMRLGCGKGVPDPRSQPVLLQYSLNGGLSWSLLQEFLFSNSSNVGRYIALEIPLKARSGSTRLRWWQPSENGHFYSPWVIDQILIGGNISGNMVLEDDFTTLDSRKWLLHPGGTKMPVCGSTGDALVFIEKASTRYVVSTDVAVNEDSFLQIDFAVSCSVTDSCYAIELEYSVDLGLSWHPLVRDCLPTNVECSRYHLQRILVSDTFNKWTRITLPLPPYTRSQATRFRWHQPAPFDKQQTWAIDNVYIGDGCIDMCSGHGRCIQGNCVCDEQWGGLYCDDPETSLPTQLKDNFNRAPSSQNWLTVNGGKLSTVCGAVASGMALHFSGGCSRLLVTVDLNLTNAEFIQFYFMYGCLITPNNRNQGVLLEYSVNGGITWNLLMEIFYDQYSKPGFVNILLPPDAKEIATRFRWWQPRHDGLDQNDWAIDNVLISGSASTRKQNYMMNFSRQHGLRRFYNRRRRSLRRYP
With B3, the pDAB1 levels entry in the test on pDAB1 (Tyr232) [2] is reported as “increased pDAB1 levels”.
